This note sets out measurements from paper PMC9407527 (Proceedings of the National Academy of Sciences of the …, 2022).

A word on the Kd: it is the equilibrium constant for the complex coming apart. Low readings indicate a tighter complex, high ones a looser complex.

Square brackets hold non-standard residues; d marks the D form. Ends that are not written are not given here. * marks the point of attachment. MTSL = spin label, CC1(C)C=C(CS*)C(C)(C)N1[O]; pS = N[C@@H](COP(=O)(O)O)C(=O)O

For assay [1], the target named is T1, occludin 413–522 α-helical bundle (NMR construct with the N-terminal extension GPLGS) (human, UniProt Q16625 413-522).
T1 sequence: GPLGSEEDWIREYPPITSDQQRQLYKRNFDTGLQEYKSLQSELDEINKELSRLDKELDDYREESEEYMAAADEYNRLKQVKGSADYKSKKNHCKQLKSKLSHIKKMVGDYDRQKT
The assay is described as follows: NMR paramagnetic relaxation enhancement.

The target of assay [2] is T2, fluorescent-tagged His-tagged occludin 413–522 (human, UniProt Q16625 413-522, fluorescent label from the MonolithNT His-Tag Labeling Kit (NanoTemper)).
T2 sequence (looked up): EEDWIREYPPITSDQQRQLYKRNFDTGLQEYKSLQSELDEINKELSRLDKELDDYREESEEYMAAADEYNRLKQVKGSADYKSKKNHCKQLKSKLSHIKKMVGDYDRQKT
In words: MST.

For the molecule AKGRAGRSKRTEQDHYETDYTTGGEDC(MTSL)DEL (peptide, UniProt Q16625 383-412, looked up) [occludin 383–412^S408D unstructured region peptide, MTSL-labelled at C409], in assay [1], the binding result was “binds”.

As for AKGRAGRSKRTEQDHYETDYTTGGEAC(MTSL)DEL (peptide, UniProt Q16625 383-412, looked up) [occludin 383–412^S408A unstructured region peptide, MTSL-labelled at C409], the binding result in assay [1] is “binds”.

Consider AKGRAGRSKRTEQDHYETDYTTGGESCDEL [synthetic occludin 383–412 peptide, nonphosphorylated], for which, in assay [2], the equilibrium dissociation constant (Kd) is 175 ± 27 µM.

Take AKGRAGRSKRTEQDHYETDYTTGGE[pS]CDEL [synthetic occludin 383–412 peptide phosphorylated at S408]: the Kd in assay [2] was 37 ± 15 µM. Against the preceding molecule, the Kd is about 4.7-fold lower.
